In patent publication US7022323 one finds % Positive Cells and Mean fluorescence intensity data, which are given here for 4 substances.

In experiment [1] the target is DC-SIGN (Dendritic Cell-Specific Intercellular adhesion molecule 3-Grabbing Nonintegrin), human, expressed on HeLa-DC-SIGN cells (homo sapien) (UniProt Q9NNX6). Briefly: flow cytometry on HeLa-DC-SIGN cells.
Experiment [2] has as its target DC-SIGNR (DC-SIGN Related), human, expressed on HeLa-DC-SIGN-R cells (homo sapien) (UniProt Q9H2X3). Briefly: flow cytometry on HeLa-DC-SIGN-R cells.

DC-SIGNR (DC-SIGN Related), human, expressed on HeLa-DC-SIGN-R cells (homo sapien), sequence (Q9H2X3 whole entry C368X): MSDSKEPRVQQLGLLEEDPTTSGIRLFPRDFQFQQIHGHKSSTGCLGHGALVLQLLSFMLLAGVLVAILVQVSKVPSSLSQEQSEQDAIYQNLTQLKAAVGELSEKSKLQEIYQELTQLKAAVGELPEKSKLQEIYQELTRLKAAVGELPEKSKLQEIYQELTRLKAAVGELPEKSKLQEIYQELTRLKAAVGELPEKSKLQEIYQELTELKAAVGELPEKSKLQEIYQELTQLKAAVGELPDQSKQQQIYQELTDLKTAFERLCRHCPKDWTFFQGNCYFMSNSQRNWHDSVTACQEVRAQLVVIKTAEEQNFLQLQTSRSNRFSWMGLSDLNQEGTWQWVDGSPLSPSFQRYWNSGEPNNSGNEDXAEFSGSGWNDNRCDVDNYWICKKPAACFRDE
DC-SIGN (Dendritic Cell-Specific Intercellular adhesion molecule 3-Grabbing Nonintegrin), human, expressed on HeLa-DC-SIGN cells (homo sapien), sequence (Q9NNX6 whole entry): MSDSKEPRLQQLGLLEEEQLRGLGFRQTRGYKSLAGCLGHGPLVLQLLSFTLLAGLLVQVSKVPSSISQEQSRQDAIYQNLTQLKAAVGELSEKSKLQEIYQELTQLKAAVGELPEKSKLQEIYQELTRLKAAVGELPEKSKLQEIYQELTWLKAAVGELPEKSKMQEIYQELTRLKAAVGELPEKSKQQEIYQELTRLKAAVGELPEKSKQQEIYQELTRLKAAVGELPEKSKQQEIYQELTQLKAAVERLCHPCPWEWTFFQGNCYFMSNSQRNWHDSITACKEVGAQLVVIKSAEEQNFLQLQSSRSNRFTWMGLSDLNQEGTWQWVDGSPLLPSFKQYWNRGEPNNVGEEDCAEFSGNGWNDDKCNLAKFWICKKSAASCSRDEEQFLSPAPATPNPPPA

In experiment [1], Isotype control (antibody) came in with a % Positive Cells of 1% and a Mean fluorescence intensity of 16.9. In experiment [2], this substance displayed a % Positive Cells of 2.8% and a Mean fluorescence intensity of 13.7.
For “120507 (507D), DC-SIGN-specific mouse IgG2b mAb (BD Pharmingen) (antibody)”, in that order: 90.6%, 81.1, 3.5% and 17.1.
With “120604 (604L), DC-SIGN-R-specific mouse IgG2b mAb (BD Pharmingen) (antibody)”, in experiment [1], the % Positive Cells turned out to be 1.1% and the Mean fluorescence intensity came to 14.2. In experiment [2], the % Positive Cells is 96% and the Mean fluorescence intensity came out at 129.
In experiment [1], “120612 (612X), mouse IgG2a mAb that recognizes both DC-SIGN and DC-SIGN-R (BD Pharmingen) (antibody)” returned a % Positive Cells of 67.3% and a Mean fluorescence intensity of 46.6. In experiment [2], the % Positive Cells was found to be 94.8% and the Mean fluorescence intensity was 102.
